The subject of this test is B16F10-Red-FLuc mouse melanoma cells. The experiment in a line: B16F10-Red-FLuc experimental metastasis to the lung, N/P=4 and N/P=6 versus recombinant mIL-12 (Example 9). It is filed as in vivo, C57BL/6 mice. The procedure: The anti-tumor effect of nanoparticles containing PEG-mIL12 and expressing mIL-12 was compared to recombinant mIL-12 protein administered subcutaneously. The experimental design was as Example 8 but nanoparticles were prepared at N/P=4 and N/P=6 ratios. Nanoparticles were dosed as before for N/P=6, however, for the N/P=4 formulation the dose was maintained at 2 mg/kg in 10 mL/kg at day 8. For dosing of the recombinant protein, 10 μg of recombinant mIL-12 (PeproTech, Rocky Hill, N.J., USA) were reconstituted in PBS to make a 100 μg/mL stock solution. Dosing of the animals was at 4 μg/kg for the initial dose (Day 5) followed by four subsequent doses 12 μg/kg at the same intervals as the nanoparticles (Day 8, 11, 14 and 17).

B1: recombinant mIL-12: recombinant mIL-12 protein (PeproTech) administered subcutaneously (protein, UniProt P43431 23-215; P43432 23-335, looked up)
Interleukin-12 subunit alpha: RVIPVSGPARCLSQSRNLLKTTDDMVKTAREKLKHYSCTAEDIDHEDITRDQTSTLKTCLPLELHKNESCLATRETSSTTRGSCLPPQKTSLMMTLCLGSIYEDLKMYQTEFQAINAALQNHNHQQIILDKGMLVAIDELMQSLNHNGETLRQKPPVGEADPYRVKMKLCILLHAFSTRVVTINRVMGYLSSA
Interleukin-12 subunit beta: MWELEKDVYVVEVDWTPDAPGETVNLTCDTPEEDDITWTSDQRHGVIGSGKTLTITVKEFLDAGQYTCHKGGETLSHSHLLLHKKENGIWSTEILKNFKNKTFLKCEAPNYSGRFTCSWLVQRNMDLKFNIKSSSSSPDSRAVTCGMASLSAEKVTLDQRDYEKYSVSCQEDVTCPTAEETLPIELALEARQQNKYENYSTSFFIRDIIKPDPPKNLQMKPLKNSQVEVSWEYPDSWSTPHSYFSLKFFVRIQRKKEKMKETEEGCNQKGAFLVEKTSTEVQCKGGNVCVQAQDRYYNSSCSKWACVPCRVRS
As to B1, the “Median survival time compared with Trehalose control” value (Log-rank test: p≤0.01 for formulations of PEG-mIL12, p≤0.05 for recombinant mIL-12, Trehalose 22.0 days) was “significantly longer”. The “tumor growth by luminescence readings compared with 9.5% Trehalose control” value (Study Day 19) is listed as “significant (p≤0.05) inhibition of tumor growth”. For the same molecule, the Median survival time (nanoparticles i.v. 2 mg/kg Days 5, 8, 11, 14, 17 (N/P=6: 1 mg/kg Day 8), recombinant mIL-12 subcutaneously 4 μg/kg Day 5 then 12 μg/kg) was found to be 25.0 days.

The values above are taken from US20210155955A1, “THERAPEUTIC CONSTRUCTS FOR TREATING CANCER” (CANCER TARGETING SYSTEMS, INC., priority 2018, published 2021).
